Consider two molecules from publication PMC11359169, “[…] CLOCK-ASSOCIATED1 Delays Flowering by Directly Inhibiting the Transcription of BcSOC1 in Pak-choi”.

One data set deals with BcFLC (Brassica campestris (syn. Brassica …, UniProt A4L9R7 1-196)). Put plainly: EMSA; cold probe competition 10x, 100x, 250x; Chemiluminescent EMSA kit (Beyotime); buffer, salt, pH and temperature not stated. Conditions: protein: recombinant; tags: GST (pGEX-4T-1); chain copies: 2; label: biotin (5' and 3' ends per Methods); blunt. In general terms: In EMSA bound probe runs differently from free probe, usually more slowly.

The target of a further data set is BcCCA1 (Brassica campestris (syn. Brassica …, UniProt F5B4H3 1-554)). Described as above. Conditions: protein: recombinant; tags: His (pCold-His); label: biotin (5' and 3' ends per Methods); blunt.
Sequence of BcCCA1 (Brassica campestris (F5B4H3 entry or part of it): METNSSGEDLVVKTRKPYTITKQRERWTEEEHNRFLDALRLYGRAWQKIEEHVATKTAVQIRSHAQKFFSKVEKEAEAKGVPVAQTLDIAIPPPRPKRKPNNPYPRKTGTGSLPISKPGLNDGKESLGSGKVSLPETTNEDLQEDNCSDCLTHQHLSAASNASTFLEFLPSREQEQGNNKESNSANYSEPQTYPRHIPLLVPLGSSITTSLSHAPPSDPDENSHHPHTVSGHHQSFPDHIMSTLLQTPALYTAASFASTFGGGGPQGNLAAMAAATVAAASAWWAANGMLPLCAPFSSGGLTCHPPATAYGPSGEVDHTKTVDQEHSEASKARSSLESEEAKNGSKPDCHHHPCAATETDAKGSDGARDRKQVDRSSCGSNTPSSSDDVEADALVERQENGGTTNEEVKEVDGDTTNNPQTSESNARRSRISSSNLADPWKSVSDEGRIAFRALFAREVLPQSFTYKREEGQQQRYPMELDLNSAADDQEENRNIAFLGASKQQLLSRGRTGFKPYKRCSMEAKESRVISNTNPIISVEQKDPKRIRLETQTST

Sequence of BcFLC (Brassica campestris (A4L9R7 entry or part of it): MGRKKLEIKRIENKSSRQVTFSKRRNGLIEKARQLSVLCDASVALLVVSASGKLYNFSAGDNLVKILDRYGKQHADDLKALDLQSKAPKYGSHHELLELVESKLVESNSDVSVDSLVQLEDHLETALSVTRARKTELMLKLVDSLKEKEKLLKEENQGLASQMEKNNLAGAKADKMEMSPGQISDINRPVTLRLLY

B1: GATA probe (BcSOC1 promoter) (dsDNA)
DNA 1: GTAAAGGATGAGGTTTCAAG
DNA 2: CTTGAAACCTCATCCTTTAC
On to B1, for which the binding result in the data set with BcFLC is “binds”.

B2: MBS probe (BcSOC1 promoter) (dsDNA)
DNA 1: TCCCCGTCAACGTATGTTGA
DNA 2: TCAACATACGTTGACGGGGA
Turning to B2, in the data set with BcCCA1, the binding result is given as “binds”.
